Sequences and labels used below:
T1: HuCDCP1-C (Homo sapiens, UniProt Q9H5V8)
T1 construct: made in house; host or cells: HEK-293T
T1 sequence (Q9H5V8 30-667): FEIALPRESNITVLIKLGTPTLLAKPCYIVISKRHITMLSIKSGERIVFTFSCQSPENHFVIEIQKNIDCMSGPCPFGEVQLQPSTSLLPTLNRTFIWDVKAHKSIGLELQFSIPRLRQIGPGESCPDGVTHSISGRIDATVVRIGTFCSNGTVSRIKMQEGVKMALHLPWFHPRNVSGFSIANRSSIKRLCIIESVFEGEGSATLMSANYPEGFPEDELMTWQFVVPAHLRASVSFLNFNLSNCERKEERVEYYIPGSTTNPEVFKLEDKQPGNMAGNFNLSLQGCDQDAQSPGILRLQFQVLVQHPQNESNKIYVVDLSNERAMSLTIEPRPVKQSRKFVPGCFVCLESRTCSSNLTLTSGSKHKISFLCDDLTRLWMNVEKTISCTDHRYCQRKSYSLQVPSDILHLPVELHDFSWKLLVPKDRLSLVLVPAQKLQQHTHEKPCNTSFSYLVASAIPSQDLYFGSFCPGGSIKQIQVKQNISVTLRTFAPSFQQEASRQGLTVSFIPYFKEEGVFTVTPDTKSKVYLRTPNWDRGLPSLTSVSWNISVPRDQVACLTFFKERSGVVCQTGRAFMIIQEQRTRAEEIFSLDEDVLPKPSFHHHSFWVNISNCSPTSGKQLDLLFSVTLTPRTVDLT

B1: 1CP-127: humanized anti-CDCP1 antibody produced by 3C11; VH SEQ ID NO: 342, VL SEQ ID NO: 351 (antibody, V domains shown)
VH: QVQLVQSGAEVKKPGASVKVSCKASGYNFISYWLHWVRQAPGQGLEWMGGIYPGNTDTTYNQKFKGRVTVTAVTSTSTVYMELSSLRSEDTAVYYCIRYDYDRGMDYWGQGTLVTVSS
VL: DIQMTQSPSSLSASVGDRVTITCRASEDIYYRLAWYQQKPGKAPKLLISGATALETGVPSRFSGSGSGKDYTFTISSLQPEDIATYYCQHYWNIPWTFGQGTKVEIK
modifications: humanized antibody 3C11 heavy chain variable region 04; humanized antibody 3C11 light chain variable region 01
B2: 1CP-131: humanized anti-CDCP1 antibody produced by 3C11; VH SEQ ID NO: 342, VL SEQ ID NO: 352 (antibody, V domains shown)
VH: B1 VH
VL: B1 VL with F73L
modifications: humanized antibody 3C11 heavy chain variable region 04; humanized antibody 3C11 light chain variable region 02
B3: 1CP-135: humanized anti-CDCP1 antibody produced by 3C11; VH SEQ ID NO: 342, VL SEQ ID NO: 353 (antibody, V domains shown)
VH: B1 VH
VL: B1 VL with K42N, F73L
modifications: humanized antibody 3C11 heavy chain variable region 04; humanized antibody 3C11 light chain variable region 03
B4: 1CP-133: humanized anti-CDCP1 antibody produced by 3C11; VH SEQ ID NO: 340, VL SEQ ID NO: 353 (antibody, V domains shown)
VH: B1 VH with V70M, V73D
VL: B1 VL with K42N, F73L
modifications: humanized antibody 3C11 heavy chain variable region 02; humanized antibody 3C11 light chain variable region 03
B5: 1CP-132: humanized anti-CDCP1 antibody produced by 3C11; VH SEQ ID NO: 339, VL SEQ ID NO: 353 (antibody, V domains shown)
VH: B1 VH with V70M, A72R, V73D
VL: B1 VL with K42N, F73L
modifications: humanized antibody 3C11 heavy chain variable region 01; humanized antibody 3C11 light chain variable region 03
B6: 1CP-118: humanized anti-CDCP1 antibody produced by 8E5; VH SEQ ID NO: 349, VL SEQ ID NO: 358 (antibody, V domains shown)
VH: QVQLVQSGSELKKPGESVKVSCKASGYTLTDFSMHWVRQAPGQGLEWMGWINTETGAPTYADDFKGRFVLSLDTSVSTAYLQISSLKSEDTAVYYCSRGRDYDPHFDYWGQGTLVTVSS
VL: EIVLTQSPATLSLSPGERATLSCRASQSISDFLHWYQQKPGQSPRLLIKYASQSISGIPARFSGSGSGSDFTLTISSVEPEDFAVYYCQSAHSFPYTFGQGTKLEIK
modifications: humanized antibody 8E5 heavy chain variable region 03; humanized antibody 8E5 light chain variable region 02
B7: 1CP-119: humanized anti-CDCP1 antibody produced by 8E5; VH SEQ ID NO: 350, VL SEQ ID NO: 358 (antibody, V domains shown)
VH: B6 VH with V5Q, V20L, E46K, L70F, T78M
VL: B6 VL
modifications: humanized antibody 8E5 heavy chain variable region 04; humanized antibody 8E5 light chain variable region 02
B8: 1CP-123: humanized anti-CDCP1 antibody produced by 8E5; VH SEQ ID NO: 350, VL SEQ ID NO: 359 (antibody, V domains shown)
VH: B6 VH with V5Q, V20L, E46K, L70F, T78M
VL: B6 VL with P40S
modifications: humanized antibody 8E5 heavy chain variable region 04; humanized antibody 8E5 light chain variable region 03
B9: 1CP-120: humanized anti-CDCP1 antibody produced by 8E5; VH SEQ ID NO: 347, VL SEQ ID NO: 359 (antibody, V domains shown)
VH: B6 VH with E16A, L70F, S88A
VL: B6 VL with P40S
modifications: humanized antibody 8E5 heavy chain variable region 01; humanized antibody 8E5 light chain variable region 03
B10: 1CP-122: humanized anti-CDCP1 antibody produced by 8E5; VH SEQ ID NO: 349, VL SEQ ID NO: 359 (antibody, V domains shown)
VH: B6 VH
VL: B6 VL with P40S
modifications: humanized antibody 8E5 heavy chain variable region 03; humanized antibody 8E5 light chain variable region 03
B11: 1CP-151: humanized anti-CDCP1 antibody produced by 8C9; VH SEQ ID NO: 343, VL SEQ ID NO: 354 (antibody, V domains shown)
VH: EVQLVESGGGLVQPGRSLRLSCTASGLTFTHYHMSWFRQAPGKGLEWVAIIRNKAYGYTTDYSASVRGRFTISRDDSKSILYLQMNSLKTEDTAVYYCVREGGYGYDGTFAYWGQGTLVTVSS
VL: DIQMTQSPSSLSASVGDRVTITCRASESVDNYGISFMNWFQQKPGQAPKLLIYAASNQGSGVPSRFSGSGSGTDFTLTISSMQPEDFATYYCQQSKEVPRTFGGGTKVEIK
modifications: humanized antibody 8C9 heavy chain variable region 01; humanized antibody 8C9 light chain variable region 01

Substitutions are numbered along the chain they refer to.

The target of the test is T1, HuCDCP1-C. Kind of test: Caterra affinity of humanized anti-CDCP1 antibodies. The class given is binding. The following applies: HuCDCP1-C 2 μg/ml immobilized. On the procedure:
The humanized anti-CDCP1 antibodies obtained from Example 11 were subjected to gene cloning, constructed into pTT5 expression vector for a small amount of expression in CHO cells (Expi-CHOS: Gibco A29127), and purified with an Fc affinity column (AT Protein A Diamond Plus. No. AA402312). Antibody purity was analyzed by HPLC and determined by Nanodrop. High-throughput affinity assay was carried out for a small amount of antibodies by Caterra.
B1: the “ka” value came to 205000 M⁻¹ s⁻¹ and the “kd” value turned out to be 0.00198 s⁻¹.
As to B2, the “ka” value stood at 191000 M⁻¹ s⁻¹ and the “kd” value was found to be 0.002 s⁻¹.
The matching figures for B3: 249000 M⁻¹ s⁻¹ and 0.0012 s⁻¹.
In the same order, the values of B4 are 183000 M⁻¹ s⁻¹ and 1e-05 s⁻¹.
In the same order, the values of B5 are 140000 M⁻¹ s⁻¹ and 1e-05 s⁻¹.
As for B6, the “ka” value amounted to 168000 M⁻¹ s⁻¹ and the “kd” value is 0.00225 s⁻¹.
The matching figures for B7: 226000 M⁻¹ s⁻¹ and 0.00124 s⁻¹.
In the same order, the values of B8 are 199000 M⁻¹ s⁻¹ and 0.00227 s⁻¹.
The matching figures for B9: 139000 M⁻¹ s⁻¹ and 1.7e-05 s⁻¹.
For the molecule B10, the “ka” value came out at 167000 M⁻¹ s⁻¹ and the “kd” value worked out at 0.00209 s⁻¹.
The matching figures for B11: 158000 M⁻¹ s⁻¹ and 0.00302 s⁻¹.

The values are drawn from US20260250410A1, “ANTIBODY AND USE THEREOF” (SICHUAN HUIYU PHARMACEUTICAL CO., LTD., priority 2022, published 2026).
